# Where a name gives a salt, the structure may show the parent alone.
# How the values were obtained:
# [1] = Thermogravimetric analysis of purified ALM-488 chloride salt; format: physicochemical
# [2] = pH-moderated solubility (NaOH titration) of ALM-488 salts; format: physicochemical
# Experimental: A titration experiment was carried out using the ALM-488, HCl salt to determine if a nominal 40-50 mg/mL or higher solubility could be retained as pH is increased by gradual addition of NaOH. […] At solution pH values <4 the peptide remained in solution at concentrations >50 mg/mL. Above pH 4, the peptide precipitated. […] Dilution of the mixture due to base addition decreased the peptide concentration to ~47 mg/mL at pH values >7.
# FIG. 8 is an overlay of the titration curves for ALM-488 hydrochloride and the ALM-488 acetate.
# [3] = Karl Fisher water content of purified ALM-488 chloride salt; format: physicochemical; conditions: oven 100° C.
# Experimental: Karl Fisher titration was carried out on the chloride salt of ALM-488 using a Mettler Toledo Stromboli automatic oven sample changer. The instrument was standardized with a Hydranal® Water standard (Fluka). The solid ALM-488 sample was weighed into a sample vial and was heated to 100° C. in the oven, and the water vaporized from the sample was transferred to the titrator cell by purge gas.
# [4] = Influence of storage temperature on stability of ALM-488 solution (HPLC); format: physicochemical; conditions: 50 mg/mL in sterile water for injection
# Experimental: To evaluate whether the ALM-488, HCl salt can be supplied in the form of a concentrated frozen solution, 50 mg/mL solutions of the HCl salt were prepared in water and evaluated for storage stability at different temperatures. The solutions having pH of 1.87 were prepared in sterile water for injection, and these solutions were stored at different storage temperatures (−20° C., 5° C. and 40° C.) and were analyzed using the HPLC method of Table 3 at different time periods.
# [5] = Effect of organic amine compounds on solubility of ALM-488 (pH titration)
# Experimental: To assess formulations that could be used to prepare ~50 mg/vial samples of ALM-488, and samples having an ALM-488 concentration of ~50 mg/mL, formulations having different organic amine compounds were studied. Each of these samples included (i) ALM-488 hydrochloride, (ii) a suitable base appropriate for a freeze-dried formulation (to adjust solution pH to optimal 7-8, as described in Examples 4 and 5), and (iii) at least one organic amine compound functioning as a pH-adjusting agent, bulking agent and/or a tonicity-adjusting agent. […] 55-60 mg/mL solutions of ALM-488 (pH 1.8-1.9) were titrated by gradual addition of 750 mM arginine, 1 M Tris, or 1 M meglumine.
smiles,measurement,setting,value
"CC(C)[C@H](NC(=O)[C@H](Cc1ccc(O)cc1)NCCCCC(=O)[C@H](Cc1ccc(O)cc1)NC(=O)[C@@H]1CCCN1C(=O)[C@H](CCC(=O)O)NC(=O)[C@H](CCC(=O)O)NC(=O)[C@H](Cc1c[nH]c2ccccc12)NC(=O)[C@@H]1CCCN1C(=O)[C@@H](NC(=O)[C@H](CCC(N)=O)NC(=O)c1ccc2c(c1)C(=O)OC21c2ccc(O)cc2Oc2cc(O)ccc21)C(C)C)C(=O)N[C@H](C(=O)N[C@@H](CCCCN)C(=O)N[C@@H](CCCCN)C(=O)N[C@@H](CO)C(=O)N[C@@H](CO)C(=O)NCC(=O)NCC(N)=O)C(C)C [ALM-488, HCl salt]","onset of steep decrease in weight, presumably degradation",[1]; TGA,200-250 °C
same,weight loss by TGA,[1]; heated to 100° C.,3.96%
same,"pH of resistance to pH change upon base addition (may coincide with pKa of glutamic acid and 5-FAM), first",[2]; NaOH titration,~ 4.5
same,"pH of resistance to pH change upon base addition (may coincide with pKa of glutamic acid and 5-FAM), second",[2]; NaOH titration,~ 6.5
same,precipitation,"[2]; above pH 4, NaOH titration",precipitated
same,initial pH of mixture,"[2]; before NaOH, acetate mixture ~50 mg/mL, listed as ALM-488 hydrochloride",~ 1.8
same,dissolution,"[2]; pH >7, NaOH titration",complete dissolution
same,peptide concentration in solution,"[2]; pH >7, after dilution by base addition",~ 47 mg/mL
same,appearance,"[2]; pH ~4.5 to 5.5, NaOH titration",opaque dispersion
same,appearance,"[2]; pH ~6.5, NaOH titration",clarification of the mixture
same,solubility,"[2]; water with naoh, pH <4, NaOH titration, read-out: concentration remaining in solution",> 50 mg/mL
same,solubility,"[2]; water, visual assessment, solution pH <2, read-out: solubility",> 180 mg/mL
same,solution pH,"[2]; ~55 mg/mL in water, start of titration",1.7
same,water content,[3],4.08%
same,solution pH,[4],1.87
same,Calculated total ALM-488 peptide concentration,[5]; 107 mM tris (pH 7.3),49.2 mg/mL
same,Calculated total ALM-488 peptide concentration,[5]; 116 mM arginine (pH 7.61),51.7 mg/mL
same,solubility,[5]; l-arginine titration,< 50 mg/mL
same,solubility,[5]; meglumine titration,< 50 mg/mL
same,solution pH,[5]; meglumine titration end (printed 107 mm tris),7.88
same,Calculated total ALM-488 peptide concentration,"[5]; meglumine titration, pH 7.88",49.2 mg/mL
same,solution pH,[5]; no L-arginine added,1.86
same,Calculated total ALM-488 peptide concentration,[5]; no L-arginine added (pH 1.86),55 mg/mL
same,solution pH,[5]; no Tris added,1.89
same,Calculated total ALM-488 peptide concentration,[5]; no Tris added (pH 1.89),55 mg/mL
same,solution pH,[5]; no meglumine added,1.86
same,Calculated total ALM-488 peptide concentration,[5]; no meglumine added (pH 1.86),55 mg/mL
same,solubility,[5]; tromethamine (tris) titration,< 50 mg/mL
same,solution pH,[5]; with 107 mM tris,7.3
same,solution pH,[5]; with 116 mM arginine,7.61

# — patent publication US20260306676A1, “FLUORESCEIN-LABELED NERVE TARGETING PEPTIDE FORMULATIONS AND RELATED METHODS” (ALUME BIOSCIENCES, INC., priority 2023, published 2026)
